B1: KRT15 (parent)
chain: SNFHINVEESVDGQVVSSHKREI
B2: SLC6A17 (parent)
chain: HMFTPKLDKMLDPQVWREAATQVF

Variants of: B1
Assay: protein stability index of a GFP-peptide fusion (GPS, HEK-293T) (PSI 1-6); higher = more stable
Settings: c terminus: native
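Further: lentivirally expressed fusions sorted by FACS into six bins by GFP to DsRed ratio, PSI derived from sequencing read proportions per bin multiplied by bin number.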

Protein stability index of substitutions, site by site:
I5: Q 3.1 | N 3.36 | T 3.02 | F 2.22 | S 3.06 | H 3.01 | R 2.67 | C 4.36 | D 3.64 | K 2.14 | P 2.98 | G 2.8 | L 1.71 | M 2.59 | V 3.37 | W 1.63 | Y 1.24 | E 3.97 | A 3.14
V7: E 3.63 | C 4 | K 2.1 | Y 1.36 | W 2.64 | A 2.76 | R 2.78 | M 1.14 | H 2.11 | Q 2.88 | S 2.12 | D 2.01 | L 1.34 | G 3.08 | I 2.18 | P 2.14 | T 3.07 | N 2.1
E8: F 3.87 | H 1.78 | N 1.9 | C 2.07 | A 1.57 | G 1.42 | P 2.47 | Y 2.88 | K 2.28 | V 1.32 | L 2.02 | S 2.03 | R 2.02 | T 1.34 | D 1.8 | I 2.73 | Q 1.59 | W 2.41
N2: Y 1.68 | R 1.39 | P 3.02 | C 2.13 | T 1.9 | I 2.85 | K 1.36 | E 1.69 | F 2.6 | H 2.79 | W 2.14 | G 1.87 | M 2.04 | D 1.78 | A 1.57 | S 1.96 | V 1.71 | L 2.23
V11: H 1.83 | F 3.87 | L 1.34 | N 2.33 | M 1.85 | I 2.17 | K 1.53 | G 1.7 | E 2.36 | A 1.94 | D 2.09 | C 2.69
S1: N 2.03 | I 2.56 | R 2.66 | T 2.73 | C 1.57 | A 2.11 | F 3.46 | P 2.35 | W 2.31 | M 1.31 | G 1.39 | D 3.04 | Y 1.23 | Q 1.92 | H 2.44 | V 1.78 | K 1.69
N6: G 2.24 | S 1.63 | D 1.54 | P 1.9 | L 2.23 | C 1.9 | Q 2.27 | T 2.42 | Y 1.06 | E 1.88 | I 3.69 | H 2.28 | F 2.11 | K 1.78 | M 2.11
F3: K 2.7 | L 1.84 | C 4.67 | S 1.91 | M 2.2 | N 2.78 | D 3.01 | Y 1.61 | A 2.51 | E 2.33 | V 2.18 | I 2.77 | P 2.15 | Q 2.5 | R 2.87 | T 2.69 | H 3.1
S10: I 1.34 | K 1.5 | P 1.91 | A 2.85 | E 2.57 | D 2.95 | Y 2.62 | V 1.87 | L 1.38 | R 2.21 | F 1.43 | N 2.09 | C 3.07 | H 1.95 | T 1.91 | G 2.19 | Q 1.81
E9: N 1.95 | T 2.17 | C 2.73 | F 3.74 | M 3.34 | S 1.45 | A 2.02 | R 1.89 | Q 1.47 | P 2.26 | H 2.1 | D 2.21 | G 1.54 | K 1
H4: D 2.63 | P 2.57 | K 1.94 | M 1.59 | E 3.18 | T 1.43 | C 2.78 | R 1.6 | I 2.12 | N 2.09 | F 1.49 | A 1.98 | S 2.16 | Q 1.52 | V 1.03 | Y 2.37 | G 2.5

Variants of: B2
Assay: as above
Settings: c terminus: a fixed tail appended

Protein stability index of substitutions, site by site:
E18: Q 2.22 | D 1.87 | S 1.99 | G 1.02 | T 1.79 | F 1.85 | H 1.91 | V 2.37 | A 2.04 | R 3.18 | Y 1.75 | K 1.08 | I 1.97 | N 2.3 | C 1.29 | P 1.86 | L 1.38 | M 1.52
T21: R 1.84 | Q 1.28 | K 3.06 | A 1.91 | L 1.88 | P 2.46 | C 1.06 | E 2.42 | V 1.71 | D 2.36 | Y 1.54 | G 2.13 | F 3.23 | S 1.94 | H 1.76 | M 1.54 | I 1.48 | N 2.21 | W 2.48
R17: C 1.39 | V 2.18 | E 2.3 | I 2.08 | F 1.27 | D 2.46 | M 2.42 | L 3.05 | W 1.6 | S 2.8 | T 1.82 | N 2.26 | K 1.11 | Y 1.18 | A 1.36 | H 1.74 | Q 1.84 | G 2 | P 1.89
F24: Y 1.88 | H 2.18 | M 2.96 | Q 2.64 | K 3.81 | V 2.69 | C 1.97 | P 3.17 | L 2.7 | R 2.85 | A 2.29 | N 2.67 | T 2.38 | I 1.54 | D 3.56 | S 3.39
Q22: C 1.81 | H 1.64 | T 1.82 | S 1.9 | R 1.77 | N 2.5 | W 2.1 | P 1.67 | E 1.9 | Y 1.85 | L 1.68 | K 2.52 | I 1.45 | A 1.36 | M 3.21 | G 1.93 | D 2.43
A20: D 2.24 | S 2.03 | I 2.21 | G 1.82 | N 1.94 | H 1.26 | E 2.41 | Q 1.7 | R 1.87 | V 1.22 | P 1.48 | C 1.82 | K 2.38 | T 2.19 | L 2.6 | F 1.43
V23: T 2.02 | A 2.02 | Y 2.17 | N 2.07 | P 2.2 | R 3.06 | W 1.75 | L 1.58 | Q 1.74 | H 2.02 | C 2.99 | D 3.65 | M 1.55 | F 2.16 | S 2.05 | E 2.9 | I 1.89 | G 2.2 | K 2.48
W16: N 3.2 | S 2.87 | R 3.72 | Y 2.62 | T 3.05 | V 2.59 | M 2.14 | P 3.78 | Q 3.06
A19: D 2.21 | Y 2.12 | H 2.14 | T 2.56 | L 1.48 | E 1.96 | M 1.5 | S 1.52 | R 2.03 | C 3.43 | V 2.15 | W 1.35 | G 1.63 | F 2.03 | K 1.79 | Q 2.35 | N 2.35 | P 2.24 | I 1.91
